Assay [1] concerns the target human serum albumin (human) (UniProt P02768). Briefly: SPR, scDb, pH 5.5. (In SPR one partner is held on a chip, and binding of the other changes the refractive index at the surface.)
Assay [2] concerns the target cynomolgus serum albumin (cynomolgus) (UniProt A2V9Z4). Briefly: SPR, scDb, pH 5.5.
Assay [3] addresses human serum albumin (human) (UniProt P02768). Description: SPR, scDb, pH 7.4.
The target of assay [4] is cynomolgus serum albumin (cynomolgus) (UniProt A2V9Z4). Briefly: SPR, scDb, pH 7.4.

B1: PRO480 (bispecific antibody, part only; not given: second specificity domains and linkers, V domains shown, not shown: another chain or arm of the molecule)
VL: DVVMTQSPSSLSASVGDRVTITCQASQIISSRSAWYQQKPGQPPKLLIYQASKLASGVPSRFSGSGSGTDFTLTISSLQPEDFATYYCQCTYIDSNFGAFGGGTKLTVLG
VH: EVQLVESGGGLVQPGGSLRLSCAASGFSFSSSYWICWVRQAPGKGLEWVGCVFTGDGTTYYASWAKGRFTISRDNSKNTVYLQMNSLRAEDTATYFCARPVSVYYYGMDLWGQGTLVTVSS
Consider B1, for which the equilibrium dissociation constant (Kd) in assay [1] turned out to be 2.3 nM; in assay [2] it was 4.82 nM; in assay [3], 3.36 nM. The koff in assay [1] stood at 0.000173 s⁻¹; in assay [2], 0.000373 s⁻¹; in assay [3], 0.000235 s⁻¹; in assay [4] it was 0.000549 s⁻¹. The kon turned out to be 75000 M⁻¹ s⁻¹ in assay [1], 77600 M⁻¹ s⁻¹ in assay [2], 70100 M⁻¹ s⁻¹ in assay [3] and 57000 M⁻¹ s⁻¹ in assay [4].

B2: PRO462 (bispecific antibody, part only; not given: second specificity domains and linkers, V domains shown, not shown: another chain or arm of the molecule)
VL: DIQMTQSPSSLSASVGDRVTITCQSSESVYSNNQLSWYQQKPGQPPKLLIYDASDLASGVPSRFSGSGSGTDFTLTISSLQPEDFATYYCAGGFSSSSDTAFGGGTKLTVLG
VH: EVQLVESGGGLVQPGGSLRLSCAASGFSLSSNAMGWVRQAPGKGLEYIGIISVGGFTYYASWAKGRFTISRDNSKNTVYLQMNSLRAEDTATYFCARDRHGGDSSGAFYLWGQGTLVTVSS
For the molecule B2, the dissociation constant Kd in assay [1] was 0.371 nM; in assay [2], 0.175 nM; in assay [3], 0.728 nM. The dissociation rate constant (koff) came out at 0.000333 s⁻¹ in assay [1], 0.000175 s⁻¹ in assay [2], 0.000345 s⁻¹ in assay [3] and 0.000221 s⁻¹ in assay [4]. For the same molecule, the on-rate (kon) came out at 897000 M⁻¹ s⁻¹ in assay [1], 1e+06 M⁻¹ s⁻¹ in assay [2], 474000 M⁻¹ s⁻¹ in assay [3] and 630000 M⁻¹ s⁻¹ in assay [4].

In general, Kd refers to the constant that tells how readily two partners part at equilibrium. Broadly, the koff is a measure of how fast the partners let go of each other. Higher therefore signals fast dissociation. By kon is commonly meant the rate constant with which the complex forms. A lower kon goes with slow association.

Values taken from patent publication US20200325214A1.
